Like-named read-outs stand apart in the source and are kept apart here. Blank lines part the entries; values can stand above or below the binder they belong to.
Columns and labels:
mouse 4-1BB [1] = target: T1, mouse 4-1BB (mouse, UniProt P20334 24-187); assay: SPR (Biacore)
T1 construct: also called mu4-1BB; murine 4-1BB
T1 sequence (looked up): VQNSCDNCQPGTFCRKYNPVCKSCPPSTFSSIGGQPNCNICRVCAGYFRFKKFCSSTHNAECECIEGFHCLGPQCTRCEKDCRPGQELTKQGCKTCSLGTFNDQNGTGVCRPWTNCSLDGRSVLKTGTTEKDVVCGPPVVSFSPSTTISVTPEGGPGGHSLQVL

human 4-1BB [2] = target: T2, human 4-1BB (human, UniProt Q07011 24-186); assay: SPR (Biacore)
T2 construct: SPR (Biacore) analyte; also called hu4-1BB

human 4-1BB [3] = target: T2, human 4-1BB; assay: SPR
mouse 4-1BB [4] = target: T1, mouse 4-1BB; assay: SPR
human 4-1BB [5] = target: T2, human 4-1BB; assay: SPR; remark: listed apart in the source
mouse 4-1BB [6] = target: T1, mouse 4-1BB; assay: SPR; remark: listed apart in the source
cynomolgus 4-1BB = target: T3, cynomolgus 4-1BB (cynomolgus, UniProt A9YYE7 24-186); assay: SPR
T3 sequence: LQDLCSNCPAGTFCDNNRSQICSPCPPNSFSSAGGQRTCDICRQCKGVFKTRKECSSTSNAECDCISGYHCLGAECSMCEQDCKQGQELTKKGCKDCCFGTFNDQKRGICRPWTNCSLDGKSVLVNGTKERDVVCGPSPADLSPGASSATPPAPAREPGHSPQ

[7] = target: T4, soluble form of the extracellular domain of human CD40 (Creative BioMart) (human, UniProt P25942 21-193); assay: SPR
T4 construct: Bought

human mesothelin = target: T5, human mesothelin (human, UniProt Q13421 296-580, limits assumed); assay: SPR
T5 construct: also called Human MSLN

[8] = target: T6, soluble form of the extracellular domain of cynomolgus (cyno) CD40 (Creative BioMart) (cynomolgus, UniProt G7PG38 21-193); assay: SPR
T6 construct: extracellular domain; also called Cynomolgus CD40

[9] = target: human CD40 on cells (HEK293 stable transfectants, HEK-Blue CD40 cells, human B cells, monocytic cells, … (human, UniProt P25942 21-277)); assay: cell-based or functional assay
human CD40 on cells (HEK293 stable transfectants, HEK-Blue CD40 cells, human B cells, monocytic cells, …, sequence (P25942 21-277 limits assumed): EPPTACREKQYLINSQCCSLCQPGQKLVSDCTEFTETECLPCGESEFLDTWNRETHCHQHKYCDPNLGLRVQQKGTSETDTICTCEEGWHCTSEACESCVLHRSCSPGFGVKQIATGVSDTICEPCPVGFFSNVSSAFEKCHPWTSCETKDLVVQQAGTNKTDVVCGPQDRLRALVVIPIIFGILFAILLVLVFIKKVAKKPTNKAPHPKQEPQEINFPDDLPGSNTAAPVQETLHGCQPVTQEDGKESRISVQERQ

T5 sequence (Q13421 other isoform, or with tags, fused parts or gaps limits assumed): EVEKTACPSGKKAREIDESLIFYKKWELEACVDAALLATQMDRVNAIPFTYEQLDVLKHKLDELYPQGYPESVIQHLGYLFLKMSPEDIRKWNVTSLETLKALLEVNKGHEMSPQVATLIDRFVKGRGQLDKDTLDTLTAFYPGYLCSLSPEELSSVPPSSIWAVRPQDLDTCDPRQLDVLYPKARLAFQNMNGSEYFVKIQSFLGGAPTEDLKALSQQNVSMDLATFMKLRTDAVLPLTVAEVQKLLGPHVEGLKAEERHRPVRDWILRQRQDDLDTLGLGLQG
T4 sequence (P25942 21-193 limits assumed): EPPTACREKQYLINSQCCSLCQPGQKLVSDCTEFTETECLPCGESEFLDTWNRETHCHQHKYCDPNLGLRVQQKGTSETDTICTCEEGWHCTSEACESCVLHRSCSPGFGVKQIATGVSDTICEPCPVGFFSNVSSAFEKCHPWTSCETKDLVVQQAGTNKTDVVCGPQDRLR

B1: TABBY103-rIgG1 (antibody, V domains shown)
VH: QVQLQQSGAELVKPGSSVKISCKASDYTFTSNFLHWIKQQPGNGLEWIGWINPGDGDTYYNQKFNGKATLTADKSSTTAYMQLSSLTSEDSAVYFCAGGNYYAAHYPPGPWYFDFWGPGTMVTVSS
VL: DTVLTQSPALAVSLGQRVTISCRASKSVSIYMHWYQQKSGQQPKFLIYTASNLESGVPSRFSGSGSGTDFTLTIDPVEADDIANYYCQQSNELPFTFGSGTKLEIK
notes: rat IgG1, kappa
- Kd (mouse 4-1BB [1]): 0.17 nM

B2: TABBY1.1-mIgG1 (antibody, V domains shown)
VH: EVQLVESGGDLVKPGGSQKLSCAASGFTFSSYGMSWVRQTPDRRLEWVAAIISGGSYTYYPDSVKGRFTISRDNAKNTLYLQMNSLKSEDTAMYYCARHGGYDGNYDYYAMDYWGQGTSVTVSS
VL: DVLMTQTPLSLPVSLGDQASISCRSSQSIVDSDGITYLEWYLQKPGQSPKLLIYKVSNRFSGVPDRFSGSGSGTDFTLRISRVEAEDLGLYYCFQVSHVPWTFGGGTKLEIK
notes: mouse IgG1
- Kd (human 4-1BB [2]): 2 nM

B5: hu106-1 (antibody, V domains shown)
VH: EVQLVQSGAEVKKPGSSVKVSCKASGYTFTSYYIYWVRQAPGQGLEWIGNIWPGNGGTFYGEKFMGRATFTADTSTSTAYMELSSLRSEDTAVYYCARRPDYSGDDYFDYWGQGTLVTVSS
VL: NVMLTQPHSVSESPGKTVTISCKLNSGNIGSYYVHWYQQRPGSSPTTMIYRDDKRPDGVPDRFSGSIDSSSNSASLTISGLKTEDEADYYCHSYDSTITPVFGGGTKLTVL
notes: human IgG1 constant regions with L234A and L235A
- Kd (human 4-1BB [3]): 130 nM
- koff (human 4-1BB [3]): 0.074 s⁻¹
- kon (human 4-1BB [3]): 570000 M⁻¹ s⁻¹
- Kd (mouse 4-1BB [4]): 17 nM
- koff (mouse 4-1BB [4]): 0.036 s⁻¹
- kon (mouse 4-1BB [4]): 2.2e+06 M⁻¹ s⁻¹

B10: TABBY106-rIgG1 (antibody, V domains shown)
VH: QVQLQQSGAELAKPGTSVKLSCKASGYTFTSYYIYWVKQRPGQGLEWIGNIWPGNGGTFYGEKFMGKATFTADTSSSTAYMLLGSLTPEDSAYYFCARRPDYSGDDYFDYWGQGVLVTVSS
VL: QVVLTQPKSVSTSLKSTVKLSCKLNSGNIGSYYVHWYQQHAGRSPTTMIYRDDKRPDGVPDRFSGSIDSSSNSAFLTINNVQTEDDAIYFCHSYDSTITPVFGGGTKLTVL
notes: rat IgG1, lambda
- Kd (human 4-1BB [5]): 12 nM
- koff (human 4-1BB [5]): 0.026 s⁻¹
- kon (human 4-1BB [5]): 2.2e+06 M⁻¹ s⁻¹
- Kd (mouse 4-1BB [6]): 1.6 nM
- koff (mouse 4-1BB [6]): 0.013 s⁻¹
- kon (mouse 4-1BB [6]): 8.1e+06 M⁻¹ s⁻¹
- Kd (cynomolgus 4-1BB): 18 nM
- koff (cynomolgus 4-1BB): 0.022 s⁻¹
- kon (cynomolgus 4-1BB): 1.2e+06 M⁻¹ s⁻¹
- Kd (mouse 4-1BB [1]): 1.6 nM

B12: V6-8 (bispecific antibody)
chain 1: EVQLQESGPGLVKPSETLSLTCTVSGYSITSNYYWNWIRQPPGKGLEWMGYIRYDGSNNYNPSLKNRVTISRDTSKNQFSLKLSSVTAADTAVYYCARLDYWGQGTTVTVSS
chain 2: DAQMTQSPSSLSASVGDRVTITCRSSQSLENTNGNTFLNWFQQKPGKAPKLLIYRVSNRFSGVPSRFSGSGSGTDFTLTISSLQPEDFATYYCLQVTHVPFTFGQGTKLEIK
chain 3: EVQLLESGGGLVQPGGSLRLSCAASGFTFSSYAMSWVRQAPGKGLEWVSAISGGGGRTYYADSVKGRFTISRDNSKNTLYLQMNSLRAEDTAVYYCAREEMAFRAYRFDIWGQGTLVTVSS
chain 4: not shown
- Kd [7]: 14 nM
- koff [7]: 0.014 s⁻¹
- kon [7]: 970000 M⁻¹ s⁻¹
- Kd (human mesothelin): 11 nM
- koff (human mesothelin): 0.0015 s⁻¹
- kon (human mesothelin): 130000 M⁻¹ s⁻¹
- Kd [8]: 11 nM
- koff [8]: 0.013 s⁻¹
- kon [8]: 1.3e+06 M⁻¹ s⁻¹

B14: TABBY3-mIgG2b (antibody, V domains shown)
VH: GVQLVESGGGLVQPGGSRKLSCAASGFTFSSFGMHWFRQAPEKGLEWVAYISSGSSTIYYADTLKGRFTISRDNPKNTLFLQMTSLRSEDTAMYYCARDWVDYWGQGTTLTVSS
VL: DIVITQDELSNPVTSGESASISCRSSKSLLYKDGKTYLNWFLQRPGQSPQLLIYLMSTRASGVSDRFTGSGSGTDFTLEISRVKAEDVGVYYCQQPVEYPYTFGGGTKLEIK
notes: mouse IgG2b
- Kd (human 4-1BB [2]): 6.6 nM

B16: CF9 (bispecific antibody, human IgG1, lambda)
heavy: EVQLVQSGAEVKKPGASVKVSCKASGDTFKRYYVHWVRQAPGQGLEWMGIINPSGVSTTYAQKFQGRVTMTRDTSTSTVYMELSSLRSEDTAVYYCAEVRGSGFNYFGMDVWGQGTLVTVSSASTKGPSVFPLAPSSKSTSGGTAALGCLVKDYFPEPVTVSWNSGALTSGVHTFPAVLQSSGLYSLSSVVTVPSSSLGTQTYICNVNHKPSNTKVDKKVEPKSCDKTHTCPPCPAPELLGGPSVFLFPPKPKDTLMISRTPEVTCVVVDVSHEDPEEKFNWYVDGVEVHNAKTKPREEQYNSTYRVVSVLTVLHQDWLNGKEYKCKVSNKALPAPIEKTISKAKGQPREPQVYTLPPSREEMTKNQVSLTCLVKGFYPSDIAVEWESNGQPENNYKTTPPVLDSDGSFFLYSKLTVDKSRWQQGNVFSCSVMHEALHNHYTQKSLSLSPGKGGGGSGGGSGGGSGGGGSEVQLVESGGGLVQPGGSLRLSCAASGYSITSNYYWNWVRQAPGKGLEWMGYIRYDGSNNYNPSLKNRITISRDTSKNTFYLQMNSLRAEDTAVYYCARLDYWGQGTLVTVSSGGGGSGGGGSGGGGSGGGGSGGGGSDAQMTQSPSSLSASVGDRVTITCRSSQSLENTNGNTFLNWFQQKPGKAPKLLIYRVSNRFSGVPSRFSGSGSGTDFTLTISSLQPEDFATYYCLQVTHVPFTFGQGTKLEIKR
light: SYELTQPPSVSVSPGQTASITCSGDKLGDKYASWYQQKPGQSPVLVIYQDNRRPSGIPERFSGSNSGNTATLTISGTQAMDEADYYCQAWDSDTYVFGTGTKVTVLGQPKAAPSVTLFPPSSEELQANKATLVCLISDFYPGAVTVAWKADSSPVKAGVETTTPSKQSNNKYAASSYLSLTPEQWKSHRSYSCQVTHEGSTVEKTVAPTECS
- Max. IL-12p70, dendritic cells with cell-surface mesothelin [9]: 120 pg/mL

B17: CF5 (bispecific antibody, human IgG1, lambda)
heavy: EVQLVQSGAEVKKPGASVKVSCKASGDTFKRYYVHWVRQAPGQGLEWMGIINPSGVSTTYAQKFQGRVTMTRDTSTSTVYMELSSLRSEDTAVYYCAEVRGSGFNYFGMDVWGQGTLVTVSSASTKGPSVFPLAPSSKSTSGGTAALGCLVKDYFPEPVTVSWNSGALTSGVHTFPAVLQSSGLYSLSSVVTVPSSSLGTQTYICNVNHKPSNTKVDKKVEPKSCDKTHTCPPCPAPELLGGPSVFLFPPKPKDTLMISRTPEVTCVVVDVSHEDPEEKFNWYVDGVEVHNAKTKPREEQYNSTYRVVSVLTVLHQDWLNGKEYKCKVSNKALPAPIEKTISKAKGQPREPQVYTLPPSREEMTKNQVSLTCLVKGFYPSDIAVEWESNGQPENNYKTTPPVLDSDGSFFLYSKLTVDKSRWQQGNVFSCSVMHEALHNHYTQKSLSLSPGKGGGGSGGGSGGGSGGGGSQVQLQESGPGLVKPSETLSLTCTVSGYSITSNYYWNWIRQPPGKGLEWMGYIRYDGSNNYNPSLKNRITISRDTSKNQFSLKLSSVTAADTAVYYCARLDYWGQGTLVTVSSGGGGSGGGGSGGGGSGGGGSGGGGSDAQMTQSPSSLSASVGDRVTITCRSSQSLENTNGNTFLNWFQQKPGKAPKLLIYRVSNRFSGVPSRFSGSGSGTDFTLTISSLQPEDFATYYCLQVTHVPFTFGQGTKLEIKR
light: B16 light
- Max. IL-12p70, dendritic cells with cell-surface mesothelin [9]: 60 pg/mL

More lines, now with the values ahead:

- Kd (mouse 4-1BB [1]): 0.14 nM
B3: TABBY104-rIgG1 (antibody, V domains shown)
VH: QVTLKESGPGILQPSQTLSLTCTFSGFSLSTDGLGVTWIRQPSGKGLEWLANIWWDDDKDYNPSLKNRLTISKDTSNPQAFLKITNVDTADTATYYCARIVPNSGHEDYWGQGVMVIVSS
VL: DIQMTQSPSFLSASVGDRVTINCKASQNINRYLNWYQQKLGEAPKLLMYNTNSMQTGIPSRFSGSGSGTDFTLTISSLQPEDVATYFCLQHNSWPRTFGGGTKLELK
notes: rat IgG1, kappa

- Kd (human 4-1BB [3]): 0.16 nM
- koff (human 4-1BB [3]): 6.5e-05 s⁻¹
- kon (human 4-1BB [3]): 410000 M⁻¹ s⁻¹
- Kd (mouse 4-1BB [4]): 5.2 nM
- koff (mouse 4-1BB [4]): 0.0013 s⁻¹
- kon (mouse 4-1BB [4]): 240000 M⁻¹ s⁻¹
B4: hu107-1 (antibody, V domains shown)
VH: EVQLVQSGAEVKKPGSSVKVSCKASDYTFNDYWVSWVRQAPGQGLEWIGEIYPNSGATNFNGKFRGRATLTVDNSASTAYMELSSLRSEDTAVYYCTREYTRDWFAYWGQGTLVTVSS
VL: DVVLTQSPLSLPVTLGQPASISCRSSQSLLDSDGNTYLYWFQQRPGQSPRRLIYLVSNLGSGVPDRFSGSGSGTDFTLKISRVEAEDVGVYYCMQPTHAPYTFGQGTKLEIK
notes: as for B5

- Kd (mouse 4-1BB [1]): 0.36 nM
B6: TABBY108-rIgG1 (antibody, V domains shown)
VH: EIQLQESGPGLVRPSQSLSLACSVTGYTITSAYDWSWIRKFPGNKMEWMGYIAYIGFTNSNPSLKSRISITRDTSKNQFFLQLKSVTTEDTATYYCARWSSYIPRYFDFWGPGTMVTVSS
VL: QAVLTQPNSVSTSLGSTVKLSCTITSGNIEDNFVHWYQHYEGRSPTTMIHNDDKRPDGVPDRFSGSIDSSSNSAFLTINNVEIEDEAIYFCHSYVSSINIFGGGTKLTVL
notes: rat IgG1

- Kd (mouse 4-1BB [1]): 0.82 nM
B7: TABBY101-rIgG1 (antibody, V domains shown)
VH: QIQLVQSGPELKKPGESVKISCKASGYTFTDFAIHWVKQAPGKGLKWMGWINTYTGKPTYADDFKGRFVFSLEASASTANLQISNLKNEDTATYFCSRGAPRPTNWGQGTLVTVSS
VL: DIQMTQSPASLSASLGETVSIECLASEDIYNNLAWYQQKPGKSPQLLIYYESRLQDGVPTRFSGSGSGTQYSLKINSLESEDAATYFCLQDSEYPYTFGAGTKLELK
notes: rat IgG1, kappa

- Kd (mouse 4-1BB [1]): 0.84 nM
B8: TABBY102-rIgG1 (antibody, V domains shown)
VH: QVQLQQSGAELAKPGSSVKISCKASGYTLTSYYLNWIKQTTGQGLEYIGYIDTGSGGSHYNEKFKGKATLTVDKSSSTAFMQLSSLTPVDSAVYYCARGGYYDGFFDYWGQGVMVTVSS
VL: DIQMTQSPASLSASLGETVSIECLASEGISNDLAWYQQKSGKSPQFLIYAASRLQDGVPSRFSGSGSGTRYSLKISGMQPEDEADYFCQQSYKYPPTFGSGTKLEIK
notes: rat IgG1, kappa

- Kd (human 4-1BB [5]): 0.32 nM
- koff (human 4-1BB [5]): 0.00014 s⁻¹
- kon (human 4-1BB [5]): 450000 M⁻¹ s⁻¹
- Kd (mouse 4-1BB [6]): 6.7 nM
- koff (mouse 4-1BB [6]): 0.0016 s⁻¹
- kon (mouse 4-1BB [6]): 240000 M⁻¹ s⁻¹
- Kd (cynomolgus 4-1BB): 0.36 nM
- koff (cynomolgus 4-1BB): 0.00013 s⁻¹
- kon (cynomolgus 4-1BB): 350000 M⁻¹ s⁻¹
- Kd (mouse 4-1BB [1]): 6.7 nM
B9: TABBY107-rIgG1 (antibody, V domains shown)
VH: QVKLVQSGAALVKPGASVKMSCKASDYTFNDYWVSWVKQRHGESLEWIGEIYPNSGATNFNGKFRGKATLTVDNPTSTAYMELSRLTSEDSAIYYCTREYTRDWFAYWGQGTLVTVSS
VL: DVVLTQTPSILSATIGQSVSISCRSSQSLLDSDGNTYLYWFLQRPGQSPQRLIYLVSNLGSGVPNRFSGSGSGTDFTLKISGVEAEDLGIYYCMQPTHAPYTFGAGTKLELK
notes: rat IgG1, kappa

- Kd [7]: 150 nM
- koff [7]: 0.25 s⁻¹
- kon [7]: 1.7e+06 M⁻¹ s⁻¹
- Kd (human mesothelin): 2 nM
- koff (human mesothelin): 2.8e-05 s⁻¹
- kon (human mesothelin): 14000 M⁻¹ s⁻¹
- Kd [8]: 120 nM
- koff [8]: 0.11 s⁻¹
- kon [8]: 940000 M⁻¹ s⁻¹
B11: V5-2 (bispecific antibody)
chain 1: B12 chain 1
chain 2: DAVMTQTPLSLSVTPGQPASISCRSSQSLENTNGNTFLNWYLQKPGQSPQLLIYRVSNRFSGVPDRFSGSGSGTDFTLKISRVEAEDVGVYYCLQVTHVPFTFGQGTKLEIK
chain 3: EVQLVQSGAEVKKPGASVKVSCKASGDTFKRYYVHWVRQAPGQGLEWMGIINPSGVSTTYAQKFQGRVTMTRDTSTSTVYMELSSLRSEDTAVYYCAEVRGSGFNYFGMDVWGQGTLVTVSS
chain 4: SYELTQPPSVSVSPGQTASITCSGDKLGDKYASWYQQKPGQSPVLVIYQDNRRPSGIPERFSGSNSGNTATLTISGTQAMDEADYYCQAWDSDTYVFGTGTKVTVL

- Kd (mouse 4-1BB [1]): 15 nM
B13: TABBY105-rIgG2a (antibody, V domains shown)
VH: EVQLVESGGGLVQPGRSMKLSCAASGFTFNNYDMAWVCQAPKRGLEWVATISYDGSTTYYRDSVKGRFTFSRDNAKSTLYLQMDSLRSEDTATYYCARVGAGDFDYWGQGVMVTVSS
VL: DIRMTQSPVSLSTSLGETVNIECLASEDIYSDLAWYQQKPGKSPQLLIYSTNTLQNGVPSRFSGSGSGTQYSLKINSLQSEDVATYFCQQNNNYPYTFGAGTKLELK
notes: rat IgG2a, kappa

- Max. IL-12p70, dendritic cells with cell-surface mesothelin [9]: 50 pg/mL
B15: CF4 (bispecific antibody, human IgG1, lambda)
heavy: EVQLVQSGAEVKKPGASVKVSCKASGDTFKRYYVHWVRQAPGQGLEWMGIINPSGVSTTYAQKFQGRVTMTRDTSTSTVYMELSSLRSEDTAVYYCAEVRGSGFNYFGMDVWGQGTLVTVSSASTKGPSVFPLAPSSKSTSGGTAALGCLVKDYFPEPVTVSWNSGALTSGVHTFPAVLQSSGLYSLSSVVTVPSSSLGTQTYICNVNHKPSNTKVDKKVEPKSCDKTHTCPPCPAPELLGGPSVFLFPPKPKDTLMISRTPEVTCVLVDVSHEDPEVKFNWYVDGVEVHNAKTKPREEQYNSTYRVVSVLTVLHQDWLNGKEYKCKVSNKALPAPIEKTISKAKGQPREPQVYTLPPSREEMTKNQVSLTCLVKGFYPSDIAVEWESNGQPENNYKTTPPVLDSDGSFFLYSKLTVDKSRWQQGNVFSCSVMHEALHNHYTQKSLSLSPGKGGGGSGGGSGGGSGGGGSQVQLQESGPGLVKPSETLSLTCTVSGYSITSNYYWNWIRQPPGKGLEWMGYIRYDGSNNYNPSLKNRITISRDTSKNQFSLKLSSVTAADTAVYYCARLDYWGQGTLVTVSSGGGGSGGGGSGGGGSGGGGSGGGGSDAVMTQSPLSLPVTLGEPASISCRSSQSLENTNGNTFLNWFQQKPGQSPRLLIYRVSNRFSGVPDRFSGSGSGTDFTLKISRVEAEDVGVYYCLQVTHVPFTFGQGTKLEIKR
light: B16 light
